Test results reported in publication PMC11410649 (Nature, 2024).
Read-outs that look alike come from different tables or passages of the source.

Columns and labels:
canine NPR1 = canine NPR1 (Canis lupus familiaris, UniProt A0A8I3MHU3); experiment: cell-based or functional assay
[1] = molecular target: T1, cynomolgus monkey NPR1 on HEK293 cells (Macaca fascicularis); experiment: flow cytometry on cells
T1 chain: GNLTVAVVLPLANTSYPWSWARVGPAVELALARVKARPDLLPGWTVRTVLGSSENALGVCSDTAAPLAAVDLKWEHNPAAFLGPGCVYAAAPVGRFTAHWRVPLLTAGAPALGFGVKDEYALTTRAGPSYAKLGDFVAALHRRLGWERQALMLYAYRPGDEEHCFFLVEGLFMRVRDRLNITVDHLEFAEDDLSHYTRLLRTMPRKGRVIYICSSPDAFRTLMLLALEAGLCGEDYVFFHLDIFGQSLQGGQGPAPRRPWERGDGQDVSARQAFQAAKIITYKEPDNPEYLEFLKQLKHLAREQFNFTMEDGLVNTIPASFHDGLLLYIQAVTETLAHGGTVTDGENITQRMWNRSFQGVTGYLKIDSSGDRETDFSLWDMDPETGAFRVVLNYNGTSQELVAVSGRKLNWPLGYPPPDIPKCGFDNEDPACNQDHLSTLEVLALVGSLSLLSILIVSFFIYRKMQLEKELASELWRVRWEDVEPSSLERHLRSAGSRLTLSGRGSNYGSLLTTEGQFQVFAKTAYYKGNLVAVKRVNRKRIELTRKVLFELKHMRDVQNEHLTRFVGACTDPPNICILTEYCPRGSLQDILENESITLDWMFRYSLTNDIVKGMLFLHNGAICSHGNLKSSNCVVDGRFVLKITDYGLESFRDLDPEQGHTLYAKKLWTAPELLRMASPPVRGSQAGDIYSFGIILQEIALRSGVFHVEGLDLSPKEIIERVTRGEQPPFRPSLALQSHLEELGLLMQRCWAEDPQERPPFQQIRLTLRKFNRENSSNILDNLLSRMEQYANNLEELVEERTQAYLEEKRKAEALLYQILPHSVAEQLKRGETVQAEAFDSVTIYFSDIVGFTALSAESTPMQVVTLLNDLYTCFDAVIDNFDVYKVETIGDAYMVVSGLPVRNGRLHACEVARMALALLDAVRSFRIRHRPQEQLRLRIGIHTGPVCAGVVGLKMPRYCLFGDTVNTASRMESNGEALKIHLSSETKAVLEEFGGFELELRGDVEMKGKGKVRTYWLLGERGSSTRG

[2] = molecular target: T2, human NPR1 on HEK293 cells (Homo sapiens, UniProt P16066); experiment: flow cytometry on cells
mouse NPR1 protein = mouse NPR1 protein (mouse, UniProt P18293); experiment: SPR
mouse NPR1 protein, sequence (P18293 29-469): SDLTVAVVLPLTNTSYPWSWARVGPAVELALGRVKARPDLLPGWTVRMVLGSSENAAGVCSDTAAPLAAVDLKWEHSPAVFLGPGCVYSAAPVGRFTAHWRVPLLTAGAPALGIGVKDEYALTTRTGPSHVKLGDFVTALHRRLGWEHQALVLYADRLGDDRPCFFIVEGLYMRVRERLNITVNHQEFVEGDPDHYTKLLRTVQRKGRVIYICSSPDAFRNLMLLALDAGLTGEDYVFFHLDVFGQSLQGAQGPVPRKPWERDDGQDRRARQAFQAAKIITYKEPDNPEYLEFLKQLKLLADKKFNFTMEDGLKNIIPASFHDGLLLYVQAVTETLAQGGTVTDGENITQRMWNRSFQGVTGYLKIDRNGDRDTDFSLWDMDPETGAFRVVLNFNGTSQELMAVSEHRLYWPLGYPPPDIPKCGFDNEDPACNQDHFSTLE

[3] = molecular target: T3, atrial natriuretic peptide (human, UniProt P01160); experiment: SPR
T3 chain: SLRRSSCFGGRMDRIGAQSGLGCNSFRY

[4] = molecular target: T4, monkey NPR1 extracellular domain with C-terminal MycMycHis (Macaca fascicularis); experiment: SPR
T4 chain: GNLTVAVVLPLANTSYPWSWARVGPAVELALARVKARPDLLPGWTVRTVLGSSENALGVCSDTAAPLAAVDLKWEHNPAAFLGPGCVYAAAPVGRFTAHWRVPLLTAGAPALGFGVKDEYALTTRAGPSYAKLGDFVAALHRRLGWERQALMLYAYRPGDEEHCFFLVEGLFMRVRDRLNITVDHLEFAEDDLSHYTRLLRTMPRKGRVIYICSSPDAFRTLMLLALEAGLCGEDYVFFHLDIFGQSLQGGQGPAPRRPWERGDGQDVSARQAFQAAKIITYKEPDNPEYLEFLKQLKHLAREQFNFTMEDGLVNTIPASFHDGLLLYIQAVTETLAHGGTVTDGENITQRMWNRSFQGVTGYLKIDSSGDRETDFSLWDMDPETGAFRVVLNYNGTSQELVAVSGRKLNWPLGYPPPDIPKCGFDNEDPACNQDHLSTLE

[5] = molecular target: NPR3 extracellular domain with C-terminal MycMycHis (Homo sapiens, UniProt P17342); experiment: SPR
NPR3 extracellular domain with C-terminal MycMycHis, sequence (P17342 27-481): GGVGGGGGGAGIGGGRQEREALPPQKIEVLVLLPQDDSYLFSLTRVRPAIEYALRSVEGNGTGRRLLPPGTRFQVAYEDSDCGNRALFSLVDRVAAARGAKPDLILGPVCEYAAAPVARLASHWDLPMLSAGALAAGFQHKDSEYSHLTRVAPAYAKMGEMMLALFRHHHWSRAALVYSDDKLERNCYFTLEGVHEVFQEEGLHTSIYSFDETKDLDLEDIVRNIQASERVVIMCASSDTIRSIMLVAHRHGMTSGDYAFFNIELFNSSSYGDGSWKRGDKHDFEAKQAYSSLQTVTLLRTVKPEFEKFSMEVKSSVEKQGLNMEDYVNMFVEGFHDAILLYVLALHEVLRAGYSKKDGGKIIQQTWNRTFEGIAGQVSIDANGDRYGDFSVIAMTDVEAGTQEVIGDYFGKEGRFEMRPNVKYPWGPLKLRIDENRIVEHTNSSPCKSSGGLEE

[6] = molecular target: NPR2 extracellular domain with C-terminal MycMycHis (Homo sapiens, UniProt P20594); experiment: SPR
NPR2 extracellular domain with C-terminal MycMycHis, sequence (P20594 23-458): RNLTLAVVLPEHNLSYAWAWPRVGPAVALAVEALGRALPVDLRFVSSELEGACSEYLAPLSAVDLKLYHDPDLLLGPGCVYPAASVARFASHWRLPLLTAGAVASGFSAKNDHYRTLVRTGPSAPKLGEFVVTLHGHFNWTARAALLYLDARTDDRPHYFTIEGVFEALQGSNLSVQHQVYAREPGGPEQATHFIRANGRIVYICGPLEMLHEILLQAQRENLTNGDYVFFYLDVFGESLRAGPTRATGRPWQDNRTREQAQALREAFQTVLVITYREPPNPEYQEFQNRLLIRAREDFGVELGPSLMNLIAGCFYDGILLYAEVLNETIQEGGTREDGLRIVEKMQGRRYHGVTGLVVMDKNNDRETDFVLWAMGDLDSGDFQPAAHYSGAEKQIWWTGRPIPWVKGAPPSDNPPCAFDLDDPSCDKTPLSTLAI

[7] = molecular target: T1, cynomolgus monkey NPR1 on HEK293 cells; experiment: flow cytometry on cells
[8] = molecular target: T2, human NPR1 on HEK293 cells; experiment: flow cytometry on cells; remark: listed apart in the source
[9] = molecular target: T1, cynomolgus monkey NPR1 on HEK293 cells; experiment: flow cytometry on cells
[10] = molecular target: T2, human NPR1 on HEK293 cells; experiment: flow cytometry on cells; remark: listed apart in the source

activation of canine NPR1 (Supplementary Fig. 1); EC50 (canine NPR1): > 100 nM | EC50 [1]: 2.27 nM | EC50 [2]: 4.58 nM | binding result (mouse NPR1 protein): no binding | binding result [3]: no binding | binding result [4]: binds | binding result [5]: no binding | binding result [6]: no binding | EC50 [7]: 2.42 nM | EC50 [8]: 4.56 nM | EC50 [9]: 3.01 nM | EC50 [10]: 5.69 nM
B1: REGN5381 (antibody, V domains shown)
VH: QVQLVQSGAEVKKPGASVTVSCKASGYTFTDYYMHWVRQAPGQGLEWMGWIKPNSGGTNSAQRFQGRITMTWDTSISTAYMELSRLRSDDTAVYYCSRGGPVMNYYYYYGMDVWGQGTTVTVSS
VL: NIQMTQSPSSLSASVGDRVTITCRASQSIDSYLNWYQQKPGKAPKLLIYVASSLQSGVPSRFSGSGSGKDFTLTISSLQPEDFATYYCQQSYSIPTFGQGTRLEIK
